{"source": "patent US20260209331A1", "about": "(published 2026)", "binders": {"B1": {"name": "BsAb #D3 (antibody)", "chain 1": "not shown", "chain 2": "DIQMTQSPSSLSASVGDRVTITCRTSENIYSYLAWYQQKPGKAPKLLIYNAKTLAEGVPSRFSGSGSGTDFTLTISSLQPEDFATYYCQHHYGIPFTFGQGTKVEIKRTVAAPSVFIFPPSDEQLKSGTASVVCLLNNFYPREAKVQWKVDNALQSGNSQESVTEQDSKDSTYSLSSTLTLSKADYEKHKVYACEVTHQGLSSPVTKSFNRGEC"}, "B2": {"name": "BsAb #B8 (antibody)", "chain 1": "not shown", "chain 2": "B1 chain 2"}, "B3": {"name": "BsAb #D4 (antibody)", "chain 1": "not shown", "chain 2": "B1 chain 2"}, "B4": {"name": "BsAb #B7 (antibody)", "chain 1": "not shown", "chain 2": "B1 chain 2"}, "B5": {"name": "BsAb #A6 (antibody)", "chain 1": "EIVLTQSPATLSLSPGERATLSCRASQSVYSYLAWYQQKPGQAPRLLIYDASNRATGIPARFSGSGSGTDFTLTISSLEPEDFAVYYCQQRSNWPPFTFGPGTKVDIKASTKGPSVFPLAPSSKSTSGGTAALGCLVKDYFPEPVTVSWNSGALTSGVHTFPAVLQSSGLYSLSSVVTVPSSSLGTQTYICNVNHKPSNTKVDKKV", "chain 2": "not shown", "chain 3": "not shown", "chain 4": "not shown"}, "B6": {"name": "BsAb #C8 (antibody)", "chain 1": "not shown", "chain 2": "EIVLTQSPATLSLSPGERATLSCRASQSVYSYLAWYQQKPGQAPRLLIYDASNRATGIPARFSGSGSGTDFTLTISSLEPEDFAVYYCQQRSNWPPFTFGPGTKVDIKGGGGSGGGGSGGGGSDIQMTQSPSSLSASVGDRVTITCRTSENIYSYLAWYQQKPGKAPKLLIYNAKTLAEGVPSRFSGSGSGTDFTLTISSLQPEDFATYYCQHHYGIPFTFGQGTKVEIKRTVAAPSVFIFPPSDEQLKSGTASVVCLLNNFYPREAKVQWKVDNALQSGNSQESVTEQDSKDSTYSLSSTLTLSKADYEKHKVYACEVTHQGLSSPVTKSFNRGEC"}, "B7": {"name": "BsAb #A7 (antibody)", "chain 1": "not shown", "chain 2": "B1 chain 2", "chain 3": "not shown", "chain 4": "not shown"}, "B8": {"name": "BsAb #A8 (antibody)", "chain 1": "B5 chain 1", "chain 2": "B1 chain 2", "chain 3": "not shown", "chain 4": "not shown"}}}
{"target": "T1, human TNF alpha (TNFα) (UniProt P01375 77-233)", "T1 sequence (P01375 77-233)": "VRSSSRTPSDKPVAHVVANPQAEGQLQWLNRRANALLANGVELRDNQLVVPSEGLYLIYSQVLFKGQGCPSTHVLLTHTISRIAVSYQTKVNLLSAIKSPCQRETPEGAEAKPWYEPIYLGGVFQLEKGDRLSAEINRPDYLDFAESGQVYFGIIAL", "assay": "SPR; pre-bound with IL23p19", "units": {"Kd": "pM"}}
{"binder": "B1", "Kd": 120}
{"binder": "B2", "Kd": 410}
{"binder": "B3", "Kd": 410}
{"binder": "B4", "Kd": 930}
{"target": "T2, P19 subunit of human IL-23 (IL23p19) (UniProt Q9NPF7 20-189)", "T2 chain": "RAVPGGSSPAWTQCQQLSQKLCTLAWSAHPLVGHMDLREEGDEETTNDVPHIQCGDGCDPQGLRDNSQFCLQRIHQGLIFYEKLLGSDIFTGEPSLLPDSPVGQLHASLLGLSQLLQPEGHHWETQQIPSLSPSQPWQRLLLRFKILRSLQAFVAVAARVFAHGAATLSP", "assay": "SPR", "units": {"Kd": "pM"}}
{"binder": "B5", "Kd": 40}
{"binder": "B6", "Kd": 1660}
{"binder": "B1", "Kd": 200}
{"binder": "B7", "Kd": 80}
{"binder": "B2", "Kd": 70}
{"binder": "B3", "Kd": 110}
{"binder": "B8", "Kd": 80}
{"binder": "B4", "Kd": 100}
{"target": "T1, human TNF alpha (TNFα)", "assay": "SPR", "units": {"Kd": "pM"}}
{"binder": "B5", "Kd": 390}
{"binder": "B6", "Kd": 100}
{"binder": "B1", "Kd": 160}
{"binder": "B7", "Kd": 580}
{"binder": "B2", "Kd": 420}
{"binder": "B3", "Kd": 490}
{"binder": "B8", "Kd": 1090}
{"binder": "B4", "Kd": 870}
